Assay results reported in IntAct's records for PubMed 23395182.

B1: Syndecan-1 (Homo sapiens), P18827 (parent)
chain: MRRAALWLWLCALALSLQPALPQIVATNLPPEDQDGSGDDSDNFSGSGAGALQDITLSQQTPSTWKDTQLLTAIPTSPEPTGLEATAASTSTLPAGEGPKEGEAVVLPEVEPGLTAREQEATPRPRETTQLPTTHLASTTTATTAQEPATSHPHRDMQPGHHETSTPAGPSQADLHTPHTEDGGPSATERAAEDGASSQLPAAEGSGEQDFTFETSGENTAVVAVEPDRRNQSPVDQGATGASQGLLDRKEVLGGVIAGGLVGLIFAVCLVGFMLYRMKKKDEGSYSLEEPKQANGGAYQKPTKQEEFYA
B2: Rho guanine nucleotide exchange factor TIAM1 (Homo sapiens), Q13009 (parent)
chain: MGNAESQHVEHEFYGEKHASLGRKHTSRSLRLSHKTRRTRHASSGKVIHRNSEVSTRSSSTPSIPQSLAENGLEPFSQDGTLEDFGSPIWVDRVDMGLRPVSYTDSSVTPSVDSSIVLTAASVQSMPDTEESRLYGDDATYLAEGGRRQHSYTSNGPTFMETASFKKKRSKSADIWREDSLEFSLSDLSQEHLTSNEEILGSAEEKDCEEARGMETRASPRQLSTCQRANSLGDLYAQKNSGVTANGGPGSKFAGYCRNLVSDIPNLANHKMPPAAAEETPPYSNYNTLPCRKSHCLSEGATNPQISHSNSMQGRRAKTTQDVNAGEGSEFADSGIEGATTDTDLLSRRSNATNSSYSPTTGRAFVGSDSGSSSTGDAARQGVYENFRRELEMSTTNSESLEEAGSAHSDEQSSGTLSSPGQSDILLTAAQGTVRKAGALAVKNFLVHKKNKKVESATRRKWKHYWVSLKGCTLFFYESDGRSGIDHNSIPKHAVWVENSIVQAVPEHPKKDFVFCLSNSLGDAFLFQTTSQTELENWITAIHSACATAVARHHHKEDTLRLLKSEIKKLEQKIDMDEKMKKMGEMQLSSVTDSKKKKTILDQIFVWEQNLEQFQMDLFRFRCYLASLQGGELPNPKRLLAFASRPTKVAMGRLGIFSVSSFHALVAARTGETGVRRRTQAMSRSASKRRSRFSSLWGLDTTSKKKQGRPSINQVFGEGTEAVKKSLEGIFDDIVPDGKREKEVVLPNVHQHNPDCDIWVHEYFTPSWFCLPNNQPALTVVRPGDTARDTLELICKTHQLDHSAHYLRLKFLIENKMQLYVPQPEEDIYELLYKEIEICPKVTQSIHIEKSDTAADTYGFSLSSVEEDGIRRLYVNSVKETGLASKKGLKAGDEILEINNRAADALNSSMLKDFLSQPSLGLLVRTYPELEEGVELLESPPHRVDGPADLGESPLAFLTSNPGHSLCSEQGSSAETAPEETEGPDLESSDETDHSSKSTEQVAAFCRSLHEMNPSDQSPSPQDSTGPQLATMRQLSDADKLRKVICELLETERTYVKDLNCLMERYLKPLQKETFLTQDELDVLFGNLTEMVEFQVEFLKTLEDGVRLVPDLEKLEKVDQFKKVLFSLGGSFLYYADRFKLYSAFCASHTKVPKVLVKAKTDTAFKAFLDAQNPKQQHSSTLESYLIKPIQRILKYPLLLRELFALTDAESEEHYHLDVAIKTMNKVASHINEMQKIHEEFGAVFDQLIAEQTGEKKEVADLSMGDLLLHTTVIWLNPPASLGKWKKEPELAAFVFKTAVVLVYKDGSKQKKKLVGSHRLSIYEDWDPFRFRHMIPTEALQVRALASADAEANAVCEIVHVKSESEGRPERVFHLCCSSPESRKDFLKAVHSILRDKHRRQLLKTESLPSSQQYVPFGGKRLCALKGARPAMSRAVSAPSKSLGRRRRRLARNRFTIDSDAVSASSPEKESQQPPGGGDTDRWVEEQFDLAQYEEQDDIKETDILSDDDEFCESVKGASVDRDLQERLQATSISQRERGRKTLDSHASRMAQLKKQAALSGINGGLESASEEVIWVRREDFAPSRKLNTEI
partner: B1 chain

Variants of: B1
Details: with tiam1_human TIAM1, Q13009

Row | Variant | effect of a mutation on the interaction
1 | E306K | decreasing interaction strength

Variants of: B2
Details: with sdc1_human SDC1, P18827

Row | Variant | effect of a mutation on the interaction
2 | K912E | decreasing interaction strength
3 | K879E | decreasing interaction strength
